Measurements published in patent US20220089765A1, “CD31 COMPETITORS AND USES THEREOF” (ENCEFA, priority 2019, published 2022).

Test system: midbrain dopaminergic (TH+) neurons
Assay: MPP+ intoxication model in midbrain cell cultures, survival of DA (TH+) neurons
Format: cell-based, Wistar rat
Method: For this purpose, spontaneously occurring DA cell death was prevented by a treatment combining depolarizing concentrations of K^+ (30 mM) and MK801 (5 μM), a glutamate receptor antagonist used to prevent unwanted excitotoxic insult. The cultures were then exposed to 3 μM MPP between 5 and 7 days in vitro (DIV) to achieve a loss of approximately 50% of DA neurons.
Animals were treated in accordance with the Guide for the Care and Use of Laboratory Animals (National Research Council, 1996), European Directive 86/609, and the guidelines of the local institutional animal care and use committee. Cultures were prepared from the ventral mesencephalon of gestational age 15.5 Wistar rat embryos (Janvier Breeding Center, Le Genest St Isle, France). Dissociated cells in suspension obtained by mechanical trituration of midbrain tissue pieces were seeded at a density of 1.2-1.5×10^5 cells/cm^2 onto tissue culture supports precoated with 1 mg/mL polyethylenimine diluted in borate buffer pH 8.3 as described (Michel et al., 1997. J Neurochem. 69(4):1499-507). The cultures were then maintained in N5 medium supplemented with 5 mM glucose, 5% horse serum, and 0.5% fetal calf serum, except for the first 3 DIV, when the concentration of fetal calf serum was 2.5% to favor initial maturation of the cultures (Guerreiro et al., 2008. Mol Pharmacol. 74(4):980-9). They were fed daily by replacing 70% of the medium. Routinely, mesencephalic cultures were established on Nunc 24-well culture plates (Thermofischer Scientific, Rochester, N.Y.). Note that these cultures contain tyrosine hydroxylase (TH)^+ neurons that were exclusively dopaminergic (Traver et al., 2006. Mol Pharmacol. 70(1):30-40). TH^+ neurons represented approximately 1-2% of the total number of neuronal cells present in these cultures. The evaluation of the survival of DA neurons was performed by counting cells immunopositive for TH as described (Toulorge et al., 2011. Faseb J. 25(8):2563-73).
Treatments with MPP were performed in cultures where the spontaneous death process was prevented by long-term exposure to depolarizing concentrations of K^+ (30 mM), in the presence of the glutamate receptor antagonist MK801 (5 μM) to prevent unwanted excitotoxic insults as described previously (Douhou et al., 2001. J Neurochem. 78(1): 163-74). Treatments with MPP and potential neuroprotective molecules were carried out between 5 and 7 DIV.
The cultures were fixed for 12 min using 4% formaldehyde in Dulbecco's phosphate-buffered saline (PBS), then washed twice with PBS before an incubation step at 4° C. for 24 h with the following antibodies. A monoclonal anti-TH antibody diluted 1/5000 (ImmunoStar, Inc., Hudson, Wis.) was used to assess the survival of DA neurons. Antibody was diluted in PBS containing 0.2% Triton X-100. Detection of the primary antibodies was performed with an Alexa Fluor-488 conjugate of an anti-mouse IgG antibody.

B1: Clone B08: anti-human CD38 antibody, HCVR SEQ ID NO: 33 and LCVR SEQ ID NO: 39 (antibody, V domains shown)
VH: EVQLVESGGSLVKPGGSLRLSCAASGFTFSNYYMNWVRQAPGKGLEWISSISGSSRSIYYADFVKGRFTISRDNAKNSLYLQMNSLRAEDTAVYYCVRSSDDYYYDYGMDVWGRGTLVTVSS
VL: QSVLTQPASVSGSPGQSITISCAGTSSDVGGSYSVSWYQQHPGKAPKLMIYDDSNRPSGVSNRFSGSKSGNTASLTISGLQAEDEADYYCSSYTDYSTRVFGGGTKL
modifications: HCVR B08; LCVR B08
In the case of B1, the “neuroprotective effect against MPP+-induced DA cell death, compared with reference clone HB7” value (3 μM MPP+ between 5 and 7 DIV, each clone and HB7 0.5 μg/mL) is reported as “stronger neuroprotective effect” and the “neuroprotective effect in the presence of the lysosomal exocytosis inhibitor vacuolin-1” value (3 μM MPP+, test substance 1 μg/mL, vacuolin-1 10 μM) is reported as “antagonized”.
